From patent US12103951B2, “Use of CGRP receptor antagonists in neuroprotection and neurological disorders” (priority 2016, dated 2024) come the findings set out here.

One data set concerns retinal astrocytes. Description: Rat laser glaucoma model: total number of GFAP-immunoreactive cells (retinal astrocytes). In kind it is in vivo, Wistar rats. Conditions: between the groups (CGRP antagonist vs vehicle). As for the experimental part:
In this study, Wistar rats (n=12) were used for the experiments. The neuroprotective properties of compounds were investigated in a rat laser model of glaucoma. Rats were divided into two groups of six rats each. One group served as a placebo control receiving vehicle (NaCl) injections, and the other was treated with a peptide CGRP receptor antagonist (SEQ ID NO: 1). For all 12 rats, the contralateral, untreated eye served as a naïve undiseased control. The vehicle control and test compound (20 mg/kg) were administered systemically (IP) daily for the whole follow-up period of two weeks. The animals were sacrificed using transcardial perfusion. The retinal whole-mounts were then immuno-stained against retinal ganglion cell (RGC) marker Brn3a and astrocytic marker GFAP (glial fibrillary acidic protein). The number of Brn3a positive profiles was manually counted from retinal images taken from central and peripheral parts of retina. The total number of GFAP-immunoreactive cells (retinal astrocytes) was estimated using stereology. […]
1. Quantification of Brn3a and GFAP-positive cells from retinal whole mounts manually and using stereology.
Retinal whole mounts were immuno-stained against RGC (Brn3a) and astrocytic (GFAP) antibodies and the number of cells was quantified either manually (Brn3a) or as previously described (Kalesnykas et al., 2008). […]

The nature of data set [1]: Rat laser glaucoma model: weight of animals. The data set is classed as in vivo, Wistar rats.
Data set [2] in a line: 14-day subcutaneous rat study: mortality, clinical signs, body weight, feed consumption. In kind it is in vivo, Sprague Dawley rats. The conditions noted are these: s.c. daily 14 days. As for the experimental part:
Sprague Dawley rats were administered the CGRP antagonist daily via the subcutaneous route for a period of 14 days, resulting in the surprising effect of LDL lowering. Fifty six animals (36 males and 20 females) were distributed into four groups (consisting each of 5 males and 5 females per group and 4 extra males each for testing group as backups). The groups were as follows: G1—Control, G2—Low dose—100 mcg/kg, G3—Intermediate dose—300 mcg/kg, G4—High dose—1000 mcg/kg.
Rats from the treatment groups were dosed subcutaneously with CGRP receptor antagonists (SEQ ID NO: 1) reconstituted with normal saline at different dose levels per treatment group for 14 days. Control animals were dosed with the vehicle alone.
The acclimatization period was, at a minimum, 7 days. For the randomization, animals were selected and grouped based on stratified randomization by using body weights one day before dosing (day 0) using an Excel program. The route of administration of the antagonist was by a subcutaneous method. The frequency of the administration was daily for fourteen days. The dose volume was set at 5 ml/kg of body weight. The duration of the treatment was fourteen days with administration occurring approximately at the same time each day.
The following observations were recorded: • 1. […] Body Weight • Body weight was recorded on day 1, 7, 11 and 15. • 3. Feed Consumption • Feed consumption was recorded daily and reported weekly. • 4. Blood Collection and Laboratory Investigations • Blood samples for were collected from all animals on day 15. The animals were fasted overnight before blood sampling but allowed access to water ad libitum for hematology and biochemistry. Blood samples were drawn from the retro-orbital plexus using a micro-hematocrit heparinized glass capillary tube. Blood samples were centrifuged (3500 rpm) and after centrifugation plasma was separated for further analysis.

Turning to “NH2-Ala-Cys-Asp-Thr-Ala-Ala-Cys-Val-Leu-Gly-Arg-Leu-Ser-Gln-Glu-Leu-His-Arg-Leu-Gln-Thr-Tyr-Pro-Arg-Thr-Asn-Val-Gly-Ser-Lys-Ala-Phe-NH2 (H-ACDTAACVLGRLSQELHRLQTYPRTNVGSKAF-NH2; ends and bridges not checked) [SEQ ID NO: 1, peptide CGRP receptor antagonist]”, in the data set on retinal astrocytes, the “total number of retinal astrocytes” value was “no differences”. The “difference in the weight between the groups” value in data set [1] (Mann-Whitney U test, P>0.05) is recorded as “no significant difference”. The Baseline weight in data set [1] (mean ± SD, baseline) is listed as 538 ± 21 g. The “Weight prior to sacrifice” value in data set [1] (mean ± SD, end of two-week study) is reported as 524 ± 27 g. Also, the food consumption result in data set [2] (all study groups) is reported as “normal”. In data set [2], the “body weight among the groups” value is recorded as “no statistically significant difference”. The mortality or morbidity result in data set [2] (100, 300, 1000 mcg/kg) is “no mortality or morbidity”. Moreover, the clinical signs result in data set [2] (high dose = 1000 mcg/kg, all animals normalized from day 12) was “no clinical signs were observed during the entire study period except for four males from the high dose group that showed lethargy on day 10”.
